Here are results for five substances from patent US20230295238A1, “INSULIN RECEPTOR-MEDIATED ENHANCEMENT OF GENE TRANSFER” (THE SCRIPPS RESEARCH INSTITUTE, priority 2020, published 2023).

“Also recorded” adds a separate entry of the source. Read-outs that look alike come from different tables or passages of the source.

For test [1], the target named is S519(VIII)-AAV9 (enhanced AAV9), mosaic AAV9 vector with insulin-mimetic peptide S519 inserted in capsid VR-VIII (adeno-associated virus serotype 9). The test is described as follows: cell-based or functional assay.
In the next test the test system is HEK293T cells. The format is cell-based, human. As to conditions: FLuc-encoding eAAV9; luciferase activity 24 hpt.
The nature of test [2]: Blood glucose after intramuscular injection in fasted mice. The format is in vivo, mouse. As to conditions: 0.5 U/kg intramuscular. As to the method: Because of the physiological role of insulin in modulating blood glucose levels, we asked whether eAAV9, with its insulin-mimetic insertion, would exert a measurable effect on the blood glucose concentration of mice. Mice were fasted as described above, and blood glucose was measured by microsampling immediately before injection of vectors to obtain a baseline value. Mice were injected in the gastrocnemius muscle with 10^9 vg of WT AAV9, eAAV9, or, as a positive control, human insulin at 0.5 U/kg, a typical therapeutic dose for a patient with diabetes mellitus type 2 (FIG. 4D). Blood glucose was then measured at 45 min, 2 h, and 4 h post injection of vectors or insulin.
Blood glucose measurement. At 4 hours before glucose measurement, mice were relocated to a cage with iso-PADS bedding (Envigo) with access to water but no food source. Mice were then anesthetized with isoflurane and their left hind limb was shaved. Blood glucose was measured with a Contour Next glucometer (Bayer) by puncturing the saphenous vein with a lancet and sampling 1 ul of venous blood by capillary action. After the first glucose measurement, mice were injected in the medial aspect of the right gastrocnemius muscle with either 10^9 vector genomes or 0.5 U/kg human insulin (Tocris). Subsequent blood glucose measurements were performed in the same way as the first. […]

Test [3] has as its target human insulin receptor, endogenous on HEK293T / Control 293T cells (human) (UniProt P06213). Briefly: cell-based or functional assay.
The target of test [4] is T1, IR (Homo sapiens, UniProt P06213). As to conditions: cited from earlier work.
Test [5] deals with T1, IR. As to conditions: cited from earlier work. The source holds these as a separate data set.

For “human IR ectodomain fused to an Fc tag (IR-Fc) (from UniProt P06213 28-956) (Fc fusion)”, in test [1], the inhibition of eAAV9 transduction of HEK293T cells (luciferase activity 24 h after transduction), IC50 was found to be 0.6 nM. In the case of human insulin, the “IC50 of human insulin for inhibition of eAAV9 transduction” value with HEK293T cells was determined as 5.2 µg/mL. Further, the blood glucose entry in test [2] (2 and 4 hours) was “rebound effect”; in test [2] (45 min), “sharp and statistically significant decrease”.

As to “human insulin (Tocris) (from UniProt P01308 90-110) (ligand)”, the inhibition of eAAV9 transduction of HEK293T cells by human insulin (luciferase activity), IC50 in test [3] was 5.2 µg/mL. For the substance “insulin-mimetic peptide GSLDESFYDWFERQLGKK (SEQ ID NO:8) [S371]”, the “activity on IR” value with IR [4] is reported as “activates the receptor in the absence of insulin”. Further, the Kd with IR [5] (read-out: affinity of binding to IR) was approximately 40 nM. In the case of “insulin-mimetic peptide, 36 amino acid linear peptide SLEEEWAQVECEVYGRGCPSGSLDESFYDWFERQLG (SEQ ID NO:7) (SLEEEWAQVECEVYGRGCPSGSLDESFYDWFERQLG) [S519]”, the “activity on IR” value with IR [4] is given as “behaves as an agonist; also recorded: agonist activity on IR”. Besides, the Kd with IR [5] (human IR, read-out: Kd for IR) was 0.02 nM.
